Patent US20100022456A1 (Novo Nordisk, published 2010)

T1: Ser-hPRLR(1-210) (human, UniProt P16471 25-234)
T1 construct: range 1-210; Amine-coupled to a CM5 chip in the SPR assay; also called soluble form of the receptor; PRL receptor
T1 sequence: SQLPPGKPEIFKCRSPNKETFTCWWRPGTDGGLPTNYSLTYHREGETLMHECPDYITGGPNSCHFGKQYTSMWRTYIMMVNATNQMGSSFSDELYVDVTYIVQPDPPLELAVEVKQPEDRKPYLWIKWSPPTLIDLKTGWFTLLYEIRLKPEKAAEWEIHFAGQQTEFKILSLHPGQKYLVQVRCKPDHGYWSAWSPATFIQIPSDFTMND


Target: T1, Ser-hPRLR(1-210)
Assay: SPR (Biacore T100), receptor amine-coupled to CM5 chip, ligand injected
Description: The soluble form of the receptor (10 μg/ml in 10 mM sodium acetate, pH 4.0) was injected into a Biacore T100 instrument and coupled to a CM5 sensor chip by amine coupling chemistry. The immobilized level was about 500 RUs of coupled receptor. […] Regeneration was accomplished with 4.5 M MgCl₂ for 90 sec with a flow rate of 30 μl/min between runs.

Kd [nM] | Binder
6 | Disulfide bridged PRL 12-199 Q12S E128C dimer (ligand, intermolecular disulfide bridge between Cys 128 of the two monomers, also called PRL dimer 1; 0033) SVTLRDLFDRAVVLSHYIHNLSSEMFSEFDKRYTHGRGFITKAINSCHTSSLATPEDKEQAQQMNQKDFLSLIVSILRSWNEPLYHLVTEVRGMQEAPEAILSKAVEIEEQTKRLLCGMELIVSQVHPETKENEIYPVWSGLPSLQMADEESRLSAYYNLLHCLRRDSHKIDNYLKLLKCRIIHNNNC
30 | PRL(12-199) Q12S G129R (ligand, Monomeric prolactin receptor antagonist analogue; also called PRL G129R analog) SVTLRDLFDRAVVLSHYIHNLSSEMFSEFDKRYTHGRGFITKAINSCHTSSLATPEDKEQAQQMNQKDFLSLIVSILRSWNEPLYHLVTEVRGMQEAPEAILSKAVEIEEQTKRLLERMELIVSQVHPETKENEIYPVWSGLPSLQMADEESRLSAYYNLLHCLRRDSHKIDNYLKLLKCRIIHNNNC
20 | Disulfide bridged PRL 12-199 Q12S R125C dimer (ligand, intermolecular disulfide bridge between Cys 125 of the two monomers) SVTLRDLFDRAVVLSHYIHNLSSEMFSEFDKRYTHGRGFITKAINSCHTSSLATPEDKEQAQQMNQKDFLSLIVSILRSWNEPLYHLVTEVRGMQEAPEAILSKAVEIEEQTKCLLEGMELIVSQVHPETKENEIYPVWSGLPSLQMADEESRLSAYYNLLHCLRRDSHKIDNYLKLLKCRIIHNNNC
3 | Disulfide bridged PRL 12-199 Q12S S61A E128C dimer (ligand, intermolecular disulfide bridge between Cys 128 of the two monomers) SVTLRDLFDRAVVLSHYIHNLSSEMFSEFDKRYTHGRGFITKAINSCHTASLATPEDKEQAQQMNQKDFLSLIVSILRSWNEPLYHLVTEVRGMQEAPEAILSKAVEIEEQTKRLLCGMELIVSQVHPETKENEIYPVWSGLPSLQMADEESRLSAYYNLLHCLRRDSHKIDNYLKLLKCRIIHNNNC
